The target of test [1] is vinculin D1D2 (residues 1-484) (human) (UniProt P18206). Briefly: SEC-MALS.
The target is the same in test [2]. Briefly: SEC-MALS. This is another data set of the same source.
Test [3] shares this target. Briefly: native gel or EMSA.
Test [4] has as its target vinculin D1 first subdomain (residues 1-257) (human) (UniProt P18206). Kind of test: native gel or EMSA.
Test [5] concerns the target full-length human vinculin (HV) (human) (UniProt P18206). Briefly: solid-phase binding assay.
The target of test [6] is vinculin D1D4 (residues 1-834) (human) (UniProt P18206). Briefly: SEC-MALS.
In test [7] the target is vinculin D1 first subdomain (residues 1-257) (human) (UniProt P18206). Kind of test: SEC-MALS.

Values joined by “and” are separate entries in the source; they are usually repeats but may differ in a detail not shown here. Equal values may be shown once.

Turning to “vinculin D1D2 (residues 1-484) (from UniProt P18206 1-484) (domain or fragment)”, the stoichiometry N is 2 and 3 in test [1]; 2 in test [2].
“IpaA derivative containing VBS1-2 (AVBS1-2) (from UniProt P18010 1-633) (domain or fragment)”: the results for the stoichiometry N in test [3], in test [4] and in test [2] were 1 D1D2:AVBS1-2, 1 D1:AVBS1-2 and 1 D1D2:AVBS1-2, respectively. Further, the EC50 in test [5] was 3.7 nM.
Regarding “IpaA derivative containing VBS1-3 (AVBS1-3) (from UniProt P18010 1-633) (domain or fragment)”, the stoichiometry N is 1 D1D4:AVBS1-3 in test [6], 1 D1D2:AVBS1-3 in test [3], 2 in test [3] (scale: AVBS1-3 per D1D2) and 1 D1:AVBS1-3 in test [4]. Besides, in test [7], the stoichiometry N (molar ratio, printed as AVBS1-3:D1) was 1 and 2 and 3. The stoichiometry N (D1D2:AVBS1-3 molar ratio) in test [3] worked out at 3. This substance yielded a concentration for a half-maximal effect (EC50) in test [5] of 6.1 nM.
As for “vinculin D1D4 (residues 1-834) (from UniProt P18206 1-834) (domain or fragment)”, the stoichiometry N in test [6] was 2 and 3.

Values taken from article doi:10.1101/2022.11.07.515412.
